Assays:
NHase-(BAP14K) = target: T1, NHase-(BAP14K) (Pseudomonas putida, UniProt P97051+P97052); assay: product tolerance: 3-cyanopyridine consumption with / without nicotinamide; assay type: biochemical; details: 20 mM 3-cyanopyridine, 10 min
T1 construct: gene nthB; pET28a, E. coli; cobalt-loaded
T1 sequence (P97052 1-217): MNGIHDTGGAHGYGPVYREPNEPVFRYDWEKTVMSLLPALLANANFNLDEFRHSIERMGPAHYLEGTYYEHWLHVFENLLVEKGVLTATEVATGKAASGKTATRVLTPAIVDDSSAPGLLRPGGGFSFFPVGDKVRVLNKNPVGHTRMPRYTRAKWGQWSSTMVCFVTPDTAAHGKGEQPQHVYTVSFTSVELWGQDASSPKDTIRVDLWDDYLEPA
T1 sequence (P97051 1-210): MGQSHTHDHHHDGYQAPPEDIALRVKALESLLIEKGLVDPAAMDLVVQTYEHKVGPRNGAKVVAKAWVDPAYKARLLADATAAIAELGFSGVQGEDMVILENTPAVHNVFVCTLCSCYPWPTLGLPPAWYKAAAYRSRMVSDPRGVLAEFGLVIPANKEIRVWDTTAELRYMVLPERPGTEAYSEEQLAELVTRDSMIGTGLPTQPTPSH
T1 sequence (O69769 1-127 partner): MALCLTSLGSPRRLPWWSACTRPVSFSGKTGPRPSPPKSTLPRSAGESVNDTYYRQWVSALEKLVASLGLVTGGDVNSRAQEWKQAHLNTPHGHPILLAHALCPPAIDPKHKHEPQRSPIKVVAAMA

NHase-(BA)P14K = target: T2, NHase-(BA)P14K (Pseudomonas putida, UniProt P97051+P97052); assay: as above; assay type: biochemical; details: 20 mM 3-cyanopyridine, 10 min
T2 construct: gene nthB; pET28a, E. coli
T2 sequence (P97052 1-217): T1 sequence (P97052 1-217)
T2 sequence (P97051 1-210): T1 sequence (P97051 1-210)

wild-type NHase = target: T3, wild-type NHase (Pseudomonas putida, UniProt P97051+P97052); assay: as above; assay type: biochemical; details: 20 mM 3-cyanopyridine, 10 min
T3 construct: gene nthA; tetramer alpha2beta2; EC 4.2.1.84; tag not clearly stated
T3 sequence (P97051 1-210): T1 sequence (P97051 1-210)
T3 sequence (P97052 1-217): T1 sequence (P97052 1-217)

[1] = target: the molecule itself; assay: SEC; purified enzymes and marker proteins on a Superdex 200 10/300 GL column, 10 mM KPB; mass from the standard curve of marker proteins, oligomer inferred from the mass
[2] = substrate: N#Cc1cccnc1; assay: nicotinamide formation, A215; assay type: biochemical, Pseudomonas putida; details: 10 mM KPB, 25 °C, 2 min, 10-200 mM substrate, cobalt enzyme
Description: nicotinamide formation, A215 on wild-type NHase

## NC(=O)c1cccnc1 [nicotinamide]
NHase-(BAP14K)
  reduction ratio (with / without 0.5 M nicotinamide): 0.83
NHase-(BA)P14K
  reduction ratio (with / without 0.5 M nicotinamide): 0.86
wild-type NHase
  reduction ratio (with / without 0.5 M nicotinamide): 0.80

B1: NHase-(BA)P14K, fusion nitrile hydratase encoded by the gene (BA)P14K (enzyme, Pseudomonas putida NRRL-18668)
chain: MNGIHDTGGAHGYGPVYREPNEPVFRYDWEKTVMSLLPALLANANFNLDEFRHSIERMGPAHYLEGTYYEHWLHVFENLLVEKGVLTATEVATGKAASGKTATRVLTPAIVDDSSAPGLLRPGGGFSFFPVGDKVRVLNKNPVGHTRMPRYTRAKWGQWSSTMVCFVTPDTAAHGKGEQPQHVYTVSFTSVELWGQDASSPKDTIRVDLWDDYLEPAPGMGQSHTHDHHHDGYQAPPEDIALRVKALESLLIEKGLVDPAAMDLVVQTYEHKVGPRNGAKVVAKAWVDPAYKARLLADATAAIAELGFSGVQGEDMVILENTPAVHNVFVCTLCSCYPWPTLGLPPAWYKAAAYRSRMVSDPRGVLAEFGLVIPANKEIRVWDTTAELRYMVLPERPGTEAYSEEQLAELVTRDSMIGTGLPTQPTPSH
notes: β-subunit of the cobalt nitrile hydratase of Pseudomonas putida NRRL-18668 (B gene); MALDI-TOF indicated the full length of βα; linker, dipeptide proline-glycine; α-subunit of the cobalt nitrile hydratase of Pseudomonas putida NRRL-18668 (A gene); Same polypeptide as m1 but made with P14K co-expressed from the same plasmid; cobalt-containing (0.84 per βα); P14K is not part of the purified enzyme; …
[1]
  stoichiometry N: 2

B2: wild-type NHase (Pseudomonas putida) (protein)
chain 1: T1 sequence (P97051 1-210)
chain 2: T1 sequence (P97052 1-217)
notes: tetramer alpha2beta2; EC 4.2.1.84; tag not clearly stated
[2]
  Km: 41.2 ± 7.7 mM
  kcat: 335 ± 57.6 s⁻¹
  kcat/Km: 8100 M⁻¹ s⁻¹

Source: article PMC4709657, “Construction of a subunit-fusion nitrile hydratase and discovery of an innovative metal ion transfer pattern” (Scientific Reports, 2016)
